# Reference: the supplement of paper PMC10065799, “High-throughput profiling of sequence recognition by tyrosine kinases and SH2 domains using bacterial peptide display” (eLife, 2023)
# Columns and labels:
# FGFR1 = FGFR1 (UniProt P11362); experiment: phosphorylation enrichment, bacterial display (enrichment ratio); higher = better substrate or ligand; peptides without Tyr show the background
# FGFR3 = FGFR3 (UniProt P22607); experiment: as above
# EPHB1 = EPHB1 (UniProt P54762); experiment: as above
# c-Abl (mouse) = experiment: as above
# Fer (mouse) = experiment: as above
# MERTK = MERTK (UniProt Q12866); experiment: as above
# Chain of MERTK (Q12866 whole entry, looked up): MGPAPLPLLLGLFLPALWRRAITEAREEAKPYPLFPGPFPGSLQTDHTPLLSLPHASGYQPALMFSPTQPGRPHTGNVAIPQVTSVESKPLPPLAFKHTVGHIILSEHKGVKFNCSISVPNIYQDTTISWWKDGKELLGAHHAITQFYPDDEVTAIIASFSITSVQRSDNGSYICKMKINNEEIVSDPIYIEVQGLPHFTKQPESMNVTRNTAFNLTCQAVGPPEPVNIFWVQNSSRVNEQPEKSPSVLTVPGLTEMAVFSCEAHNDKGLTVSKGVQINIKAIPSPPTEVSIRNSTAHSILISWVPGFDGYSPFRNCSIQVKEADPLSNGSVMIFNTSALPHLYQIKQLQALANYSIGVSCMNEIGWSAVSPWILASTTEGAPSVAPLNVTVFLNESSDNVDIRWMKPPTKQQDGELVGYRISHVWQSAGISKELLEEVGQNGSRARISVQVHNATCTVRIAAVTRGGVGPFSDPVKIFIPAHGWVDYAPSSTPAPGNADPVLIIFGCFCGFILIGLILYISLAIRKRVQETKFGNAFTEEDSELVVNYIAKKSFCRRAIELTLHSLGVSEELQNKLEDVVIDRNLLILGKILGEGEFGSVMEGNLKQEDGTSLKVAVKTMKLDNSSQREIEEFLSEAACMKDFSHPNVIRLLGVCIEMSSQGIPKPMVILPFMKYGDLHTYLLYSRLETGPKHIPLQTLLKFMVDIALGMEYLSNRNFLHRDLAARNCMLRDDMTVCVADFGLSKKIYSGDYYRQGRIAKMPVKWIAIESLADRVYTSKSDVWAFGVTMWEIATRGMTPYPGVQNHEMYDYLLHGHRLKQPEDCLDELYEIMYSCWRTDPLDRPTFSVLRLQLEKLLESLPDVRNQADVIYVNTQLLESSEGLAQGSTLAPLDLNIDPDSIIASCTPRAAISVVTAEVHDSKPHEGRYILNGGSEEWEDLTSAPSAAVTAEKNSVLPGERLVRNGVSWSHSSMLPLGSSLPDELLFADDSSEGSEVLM
# AncSZ = experiment: as above
# Hck = Hck (UniProt P08631); experiment: as above
# Chain of Hck (P08631 whole entry, looked up): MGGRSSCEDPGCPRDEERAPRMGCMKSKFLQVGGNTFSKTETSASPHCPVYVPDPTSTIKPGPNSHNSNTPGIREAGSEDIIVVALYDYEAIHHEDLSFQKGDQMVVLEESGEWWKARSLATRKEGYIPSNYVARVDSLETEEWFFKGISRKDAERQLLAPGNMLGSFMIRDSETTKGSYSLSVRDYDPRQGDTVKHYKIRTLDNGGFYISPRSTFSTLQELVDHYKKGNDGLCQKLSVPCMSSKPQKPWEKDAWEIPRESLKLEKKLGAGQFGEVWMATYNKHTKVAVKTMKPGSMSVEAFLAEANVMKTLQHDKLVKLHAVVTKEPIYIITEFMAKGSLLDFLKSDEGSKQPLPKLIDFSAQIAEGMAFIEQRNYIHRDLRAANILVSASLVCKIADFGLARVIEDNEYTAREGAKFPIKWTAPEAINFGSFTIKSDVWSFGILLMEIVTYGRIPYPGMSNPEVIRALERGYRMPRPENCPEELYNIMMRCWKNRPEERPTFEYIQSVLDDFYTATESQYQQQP
# EPHB2 = EPHB2 (UniProt P29323); experiment: as above
# Fyn = Fyn (UniProt P06241); experiment: as above
# Chain of Fyn (P06241 whole entry, looked up): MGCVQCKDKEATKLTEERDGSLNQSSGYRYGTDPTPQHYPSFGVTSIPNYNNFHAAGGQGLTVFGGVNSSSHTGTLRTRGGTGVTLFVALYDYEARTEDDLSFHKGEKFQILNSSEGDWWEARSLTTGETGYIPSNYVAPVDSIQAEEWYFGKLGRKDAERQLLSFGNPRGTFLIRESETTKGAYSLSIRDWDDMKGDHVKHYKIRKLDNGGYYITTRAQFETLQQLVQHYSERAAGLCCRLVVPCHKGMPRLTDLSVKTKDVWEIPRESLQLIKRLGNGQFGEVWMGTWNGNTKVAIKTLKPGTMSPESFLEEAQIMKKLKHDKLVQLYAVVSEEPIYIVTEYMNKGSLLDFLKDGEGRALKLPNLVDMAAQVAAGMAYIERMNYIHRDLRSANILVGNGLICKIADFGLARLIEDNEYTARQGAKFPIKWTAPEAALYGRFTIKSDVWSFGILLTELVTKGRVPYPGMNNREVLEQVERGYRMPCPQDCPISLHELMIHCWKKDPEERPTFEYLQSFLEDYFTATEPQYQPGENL
# c-Src = experiment: as above
# Jak2 = Jak2 (UniProt O60674); experiment: as above
# Fes = Fes (UniProt P07332); experiment: as above
# Chain of Fes (P07332 whole entry, looked up): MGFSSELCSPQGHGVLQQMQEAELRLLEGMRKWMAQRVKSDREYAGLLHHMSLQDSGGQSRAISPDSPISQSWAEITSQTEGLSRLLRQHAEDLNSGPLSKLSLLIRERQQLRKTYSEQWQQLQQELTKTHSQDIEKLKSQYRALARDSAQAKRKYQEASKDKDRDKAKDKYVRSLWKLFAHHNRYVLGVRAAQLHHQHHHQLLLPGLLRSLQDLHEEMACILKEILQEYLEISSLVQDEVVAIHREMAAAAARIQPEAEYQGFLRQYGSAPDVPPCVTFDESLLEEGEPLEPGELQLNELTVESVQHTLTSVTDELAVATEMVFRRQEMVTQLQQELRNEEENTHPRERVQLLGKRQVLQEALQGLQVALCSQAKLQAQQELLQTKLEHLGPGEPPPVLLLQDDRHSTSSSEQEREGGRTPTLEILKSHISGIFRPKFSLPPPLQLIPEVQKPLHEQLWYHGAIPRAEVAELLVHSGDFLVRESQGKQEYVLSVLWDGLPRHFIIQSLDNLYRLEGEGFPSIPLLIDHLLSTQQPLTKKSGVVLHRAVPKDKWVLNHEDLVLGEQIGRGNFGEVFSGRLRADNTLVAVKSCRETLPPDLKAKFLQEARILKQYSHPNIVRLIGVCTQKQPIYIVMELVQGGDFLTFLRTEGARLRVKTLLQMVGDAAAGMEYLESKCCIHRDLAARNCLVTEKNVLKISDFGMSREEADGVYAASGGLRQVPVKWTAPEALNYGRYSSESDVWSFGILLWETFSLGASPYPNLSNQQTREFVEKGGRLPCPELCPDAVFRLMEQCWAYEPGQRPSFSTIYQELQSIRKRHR
# Grb2 SH2 = Grb2 SH2 (UniProt P62993); experiment: SH2 binding enrichment of the phosphorylated peptide, bacterial display (enrichment ratio); higher = better substrate or ligand; peptides without Tyr show the background
# c-Src SH2 = experiment: as above
# SHP2-C SH2 = experiment: as above
# 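Throughout, for SH2 binding enrichment of the phosphorylated peptide, bacterial display: peptide library displayed on the E. coli surface as eCPX fusions, selected cells deep-sequenced, score is each peptide's frequency after selection divided by its frequency in the input.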
# 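Throughout, for phosphorylation enrichment, bacterial display: 11-residue human phosphosite peptides and single-mutation variants displayed on the E. coli surface, counted by deep sequencing, each peptide's frequency after selection divided by its frequency in the unselected input library; frequency after pTyr selection over input frequency; kinase dosed for 20-30% of maximal phosphorylation in three min.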
# Chain of FGFR3 (P22607 whole entry, looked up): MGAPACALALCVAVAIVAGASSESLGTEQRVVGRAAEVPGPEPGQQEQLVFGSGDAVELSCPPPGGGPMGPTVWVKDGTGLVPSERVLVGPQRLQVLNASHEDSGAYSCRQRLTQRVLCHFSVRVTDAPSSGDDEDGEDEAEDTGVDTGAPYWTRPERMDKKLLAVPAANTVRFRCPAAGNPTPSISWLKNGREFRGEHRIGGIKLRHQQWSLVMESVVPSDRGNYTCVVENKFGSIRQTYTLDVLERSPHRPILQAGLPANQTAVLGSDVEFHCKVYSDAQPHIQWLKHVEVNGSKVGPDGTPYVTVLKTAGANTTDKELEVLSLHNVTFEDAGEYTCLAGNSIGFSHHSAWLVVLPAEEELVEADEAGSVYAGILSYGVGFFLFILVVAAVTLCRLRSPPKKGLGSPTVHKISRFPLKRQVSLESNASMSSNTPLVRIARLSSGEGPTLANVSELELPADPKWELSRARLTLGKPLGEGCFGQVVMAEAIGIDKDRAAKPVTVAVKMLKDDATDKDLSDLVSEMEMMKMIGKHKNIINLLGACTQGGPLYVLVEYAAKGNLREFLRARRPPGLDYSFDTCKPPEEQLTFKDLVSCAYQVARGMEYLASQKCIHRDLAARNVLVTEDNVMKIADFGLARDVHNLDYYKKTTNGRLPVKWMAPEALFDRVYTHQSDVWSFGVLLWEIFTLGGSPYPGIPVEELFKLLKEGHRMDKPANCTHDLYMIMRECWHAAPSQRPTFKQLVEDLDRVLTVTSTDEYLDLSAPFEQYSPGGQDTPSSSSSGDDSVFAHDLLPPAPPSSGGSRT
# Chain of FGFR1 (P11362 whole entry, looked up): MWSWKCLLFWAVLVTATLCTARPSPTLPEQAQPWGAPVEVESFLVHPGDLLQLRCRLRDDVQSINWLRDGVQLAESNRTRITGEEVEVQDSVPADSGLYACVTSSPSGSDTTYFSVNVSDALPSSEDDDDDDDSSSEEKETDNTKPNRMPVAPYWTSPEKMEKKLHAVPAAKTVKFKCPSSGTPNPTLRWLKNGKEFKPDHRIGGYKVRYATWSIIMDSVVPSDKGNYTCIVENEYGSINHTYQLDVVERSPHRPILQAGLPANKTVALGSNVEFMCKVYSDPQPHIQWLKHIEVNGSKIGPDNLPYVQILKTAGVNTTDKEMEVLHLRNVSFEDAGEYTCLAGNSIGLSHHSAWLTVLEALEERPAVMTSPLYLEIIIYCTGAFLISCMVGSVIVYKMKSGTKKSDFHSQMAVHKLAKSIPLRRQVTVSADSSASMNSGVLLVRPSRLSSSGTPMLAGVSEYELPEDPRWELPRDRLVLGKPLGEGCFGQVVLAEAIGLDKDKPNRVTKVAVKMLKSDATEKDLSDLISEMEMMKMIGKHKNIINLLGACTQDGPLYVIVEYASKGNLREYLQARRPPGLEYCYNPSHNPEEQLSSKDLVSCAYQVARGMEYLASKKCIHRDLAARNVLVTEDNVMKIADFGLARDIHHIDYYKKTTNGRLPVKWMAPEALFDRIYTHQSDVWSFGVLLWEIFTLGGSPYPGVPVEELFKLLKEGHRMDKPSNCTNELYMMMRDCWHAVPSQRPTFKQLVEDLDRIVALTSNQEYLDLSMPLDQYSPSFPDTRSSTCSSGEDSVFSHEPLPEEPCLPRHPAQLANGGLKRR
SH2 binding enrichment (Grb2 SH2),SH2 binding enrichment (c-Src SH2),SH2 binding enrichment (SHP2-C SH2),Sequence,phosphorylation enrichment (FGFR1),phosphorylation enrichment (FGFR3),phosphorylation enrichment (EPHB1),phosphorylation enrichment (c-Abl (mouse)),phosphorylation enrichment (Fer (mouse)),phosphorylation enrichment (MERTK),phosphorylation enrichment (AncSZ),phosphorylation enrichment (Hck),phosphorylation enrichment (EPHB2),phosphorylation enrichment (Fyn),phosphorylation enrichment (c-Src),phosphorylation enrichment (Jak2),phosphorylation enrichment (Fes)
1.01,0.759,0.641,FLAAIYPTVGQ [NF1_Y2508_T2507I_YF],0.473,0.583,0.58,0.389,0.382,0.406,0.724,0.477,0.358,0.39,0.442,0.798,0.943
0.857,0.473,0.966,PLLEFYRDIFT [CDAN1_Y713_YF],0.822,1.33,0.95,1.18,0.732,0.81,1.85,0.626,0.874,0.669,0.816,2,2.2
0.809,0.472,0.489,RASSVYTRSTG [CCR5_Y339],0.48,0.47,0.591,0.721,0.552,1.21,0.651,0.741,0.552,0.608,0.875,0.655,1.5
0.95,0.467,0.735,QNTGHYSSENT [TMEFF2_Y361_D364E],0.828,0.548,0.814,0.561,0.868,0.908,0.66,0.468,0.389,0.903,0.588,0.575,1.33
1.22,1.49,1.87,TLSGIYQYIIA [FOXL2_Y81],11.1,8.01,12.9,4.23,13.9,9.32,1.54,7.53,12.2,6.05,4.81,1.09,5.1
0.81,0.562,0.668,EESSHCSTEKE [ADAR_Y587_Y587C],0.593,0.663,0.631,0.559,0.424,0.502,1.06,0.598,0.683,0.598,0.5,0.8,1.01
0.858,0.547,0.635,FDDIANIRKTL [PIK3CA_Y1021_Y1021N],0.652,0.513,0.525,0.813,0.459,0.386,0.873,0.275,0.452,0.465,0.416,0.496,0.746
0.922,0.643,0.771,TSRVLYPNDNF [PYGM_Y281_I276T],0.545,0.436,0.456,0.51,0.432,0.408,0.64,0.558,0.424,0.456,0.415,0.638,0.7
0.908,0.593,0.609,SVMAEYGLYGA [VSX2_Y219],0.529,0.57,0.732,0.628,3.74,0.502,0.709,6.45,1.53,6.65,4.66,0.59,0.882
